Test results from paper PMC3605159, “Twist1 Controls a Cell-Specification Switch Governing Cell Fate Decisions within the Cardiac Neural Crest” (PLoS Genetics, 2013).
Positions count from the first letter of the chain named. Names and notes keep the numbering of the source.

T1: Sox10 (rat, UniProt O55170 1-466)
T1 sequence (looked up): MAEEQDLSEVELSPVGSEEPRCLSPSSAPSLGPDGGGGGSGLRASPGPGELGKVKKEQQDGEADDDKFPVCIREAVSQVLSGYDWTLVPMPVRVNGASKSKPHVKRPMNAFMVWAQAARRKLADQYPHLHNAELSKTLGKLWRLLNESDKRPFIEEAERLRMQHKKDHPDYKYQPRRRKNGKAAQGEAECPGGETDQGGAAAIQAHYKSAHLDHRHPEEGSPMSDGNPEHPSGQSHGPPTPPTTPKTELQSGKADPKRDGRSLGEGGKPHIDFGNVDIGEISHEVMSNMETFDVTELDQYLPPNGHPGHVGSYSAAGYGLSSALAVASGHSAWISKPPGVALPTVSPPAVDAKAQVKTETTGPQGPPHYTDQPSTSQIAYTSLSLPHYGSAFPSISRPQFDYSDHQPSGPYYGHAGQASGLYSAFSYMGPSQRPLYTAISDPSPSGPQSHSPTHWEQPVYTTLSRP

B1: Twist1 (natural protein, UniProt P26687 1-206, looked up)
chain: MMQDVSSSPVSPADDSLSNSEEEPDRQQPASGKRGARKRRSSRRSAGGSAGPGGATGGGIGGGDEPGSPAQGKRGKKSAGGGGGGGAGGGGGGGGGSSSGGGSPQSYEELQTQRVMANVRERQRTQSLNEAFAALRKIIPTLPSDKLSKIQTLKLAARYIDFLYQVLQSDELDSKMASCSYVAHERLSYAFSVWRMEGAWSMSASH
B2: Twist1 S192P (natural protein, UniProt P26687 1-206, looked up)
chain: B1 chain with S192P

Biological target: T1, Sox10
Experiment: cell-based or functional assay

Row | Binder | luciferase transactivation of the Phox2b promoter by Sox10 in HeLa cells with Twist1 co-expressed (Sox10 alone 48.9+/−2.2-fold) [fold] | luciferase transactivation of the Phox2b promoter by Sox10 in HeLa cells with Twist1 S192P co-expressed (Sox10 alone 48.9+/−2.2-fold) [fold]
1 | B1 | 26.3 | –
2 | B2 | – | 49.3
